# Source: publication PMC8287531 (The Journal of Cell Biology, 2021)
# Tests used:
# talin R7R8 rod domains = molecular target: T1, talin R7R8 rod domains (UniProt Q9Y490 1359-1659); experiment: fluorescence polarisation; serial dilution of protein against 100 nM fluorescein- or BODIPY-TMR-coupled peptide; 20°C; one-site total binding equation; triplicate; conditions: both partners purified
# T1 construct: Talin R7R8 rod domains; the construct used in the assays is not described in the methods
# [1] = molecular target: T2, TLNRD1 four-helix domain (TLNRD1-4H, residues 143-273) (human, UniProt Q9H1K6 143-273); experiment: as above; conditions: both partners purified
# T2 construct: Human TLNRD1 four-helix domain, residues 143-273, sub-cloned into pET151; Density was traced for residues 148-270 in PDB 6XZ3; also called 4H domain
# T2 sequence (Q9H1K6 143-273): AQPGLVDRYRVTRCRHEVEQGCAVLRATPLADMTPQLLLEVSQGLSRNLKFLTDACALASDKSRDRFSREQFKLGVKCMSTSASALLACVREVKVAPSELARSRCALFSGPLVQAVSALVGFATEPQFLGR
# T1 sequence (Q9Y490 1359-1659): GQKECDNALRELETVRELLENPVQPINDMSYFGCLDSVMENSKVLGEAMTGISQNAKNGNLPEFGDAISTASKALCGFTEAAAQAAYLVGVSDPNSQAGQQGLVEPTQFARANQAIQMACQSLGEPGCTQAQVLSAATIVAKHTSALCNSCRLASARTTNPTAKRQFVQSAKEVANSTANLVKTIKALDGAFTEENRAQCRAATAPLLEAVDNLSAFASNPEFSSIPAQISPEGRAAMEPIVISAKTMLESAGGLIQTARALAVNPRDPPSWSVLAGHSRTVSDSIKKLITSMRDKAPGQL
Kd (talin R7R8 rod domains),Kd [1],Binder
0.35 µM,,"PYFVETPYGFQLDLDFVKYVDDIQKGNTIKKC (BODIPY-labeled, KANK1 KN domain LD motif, residues 30-60; added C-terminal cysteine residue; also called KANK1 KN domain LD motif (residues 30-60); source: synthetic peptide (GLBiochem, Shanghai)) [KANK1(30-60) peptide, KN domain LD motif, BODIPY-labeled]"
,9 µM,"EDQDLDKMFGAWLGELDRLTQSLDSDKC (coupled with either a fluorescein or BODIPY-TMR dye (which one is not stated for this peptide), Lamellipodin residues 20-46; added C-terminal cysteine residue; source: synthetic peptide (GLBiochem, Shanghai)) [lamellipodin(20-46) peptide]"
